Experimental data from US20190016816A1.

Molecular target: FcγRIIa (CD32a His131) (UniProt P12318)
Test: flow cytometry, CHO cells stably expressing CD32a His131, fluorescent anti-human IgG secondary, MFI (mean)

FcγRIIa (CD32a His131), sequence (P12318 34-317 limits assumed): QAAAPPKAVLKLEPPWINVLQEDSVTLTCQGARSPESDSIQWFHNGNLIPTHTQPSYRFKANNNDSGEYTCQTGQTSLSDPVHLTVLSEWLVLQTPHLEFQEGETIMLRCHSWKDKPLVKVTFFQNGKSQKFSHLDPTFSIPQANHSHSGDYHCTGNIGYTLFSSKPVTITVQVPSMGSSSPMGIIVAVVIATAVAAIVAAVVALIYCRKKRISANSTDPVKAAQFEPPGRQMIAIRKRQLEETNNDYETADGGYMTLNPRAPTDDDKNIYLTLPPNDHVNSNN

EC50 (read off the curve): 9 nM
Substance: control human IgG1 molecule (antibody)
